Here are results for 5 molecules from patent JP2017014112A (dated 2017).

Experiment [1] has as its target T1, サバイビンとカルモジュリンとの融合タンパク質 (catalogue no. SUR0801, ATGen) (Homo sapiens (Human), UniProt O15392 1-142, fluorescein-labelled when used as prey in the pull-down).
T1 construct: Bought fusion protein; Fluorescein-labelled in the pull-down; unlabelled and captured through biotin-CBP on the SA chip in the Biacore run; also called 融合タンパク質200; survivin-calmodulin fusion protein
Kind of experiment: SPR, Biacore X100, fusion captured through biotin-CBP on SA chip, VHH 6.25-100 nM as analyte, single cycle. On the technique in general: Surface plasmon resonance follows binding to a sensor surface in real time, without labels.

Experiment [2] concerns the target T2, サバイビン (antigen of the competitive ELISA) (UniProt O15392 1-142).
T2 construct: also called サバイビン1010; 抗原
Kind of experiment: competitive ELISA: fixed VHH equilibrated with varied survivin, free VHH caught on antigen-coated plate, anti-His detection.

The next experiment has as its target カルモジュリン (UniProt P0DP23 2-149). As to the kind of experiment: pull-down with bead-bound VHH, fluorescein-labelled prey, SDS-PAGE.

Numbering of substitutions follows the chain as printed.

T1 sequence (O15392 whole entry, the tested form may be a part): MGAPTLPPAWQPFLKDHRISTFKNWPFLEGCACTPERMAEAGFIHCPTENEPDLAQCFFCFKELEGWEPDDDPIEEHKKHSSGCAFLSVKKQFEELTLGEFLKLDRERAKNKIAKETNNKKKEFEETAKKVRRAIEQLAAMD
T2 sequence (O15392 whole entry): as the sequence (O15392 whole entry, the tested form may be a part) above

B1: 精製したVHH抗体(R7-A), C-terminal His×6, secreted from Brevibacillus (VHH)
VHH: EVQLVESGGGSVQAGGSLRLSCAASGVSNTDMIMIWFRQAPGKEREGVLAAIYKNSTYYADSVKGRFTISQDNAKNTVYLQMNSLKPEDTAIYYCAAIRAVIGRHIRPHIYWGQGTQVTVGG
notes: Expressed with the Brevibacillus secretion system and purified on Ni Sepharose
As a reminder, the Kd is the equilibrium constant for the complex coming apart. A lower Kd goes with a tighter complex. With B1, the Kd in experiment [1] turned out to be 25.1 nM; in experiment [2], 516 nM.

B2: R7-AのDNA断片にコードされるVHH抗体 (cell-free translated, on the nucleic acid linker) (VHH)
VHH: B1 VHH
modifications: C-terminus covalently bound to the puromycin of the nucleic acid linker (linker carries biotin and fluorescein)
notes: Made in rabbit reticulocyte lysate and held on streptavidin magnetic beads through the linker for the pull-down; also called VHH抗体タンパク質120
In the case of B2, the binding result with カルモジュリン was “no binding (tested: 200 nM)”.

B3: R7-EのDNA断片にコードされるVHH抗体 (VHH)
VHH: B1 VHH with I92V, R99S
modifications: C-terminus covalently bound to the puromycin of the nucleic acid linker (linker carries biotin and fluorescein)
notes: Cell-free translated, on the nucleic acid linker, as bait in the pull-down
In the case of B3, the binding result in the experiment with カルモジュリン is “no binding (tested: 500 nM in the protein mix)”.

B4: R7-BのDNA断片にコードされるVHH抗体 (VHH)
VHH: EVQLVESGGGSVQAGGSLRLSCAASGIPIQDSVVLWFRQAPGKEREGVLAAKYRSPTYYADSVKGRFTISQDNAKNTVYLQMNSLKPEDTAIYYCAAIRAVIGRHIRPHIYWGQGTQVTVGG
modifications: C-terminus covalently bound to the puromycin of the nucleic acid linker (linker carries biotin and fluorescein)
notes: as for B3
For B4, in the experiment with カルモジュリン, the binding result was “no binding (tested: 200 nM alone; 500 nM in the protein mix)”.

B5: R7-DのDNA断片にコードされるVHH抗体 (VHH)
VHH: B1 VHH with R99A, A100F, V101N, I102G, G103H, R104N, I106P, R107I, P108L, H109T
modifications: C-terminus covalently bound to the puromycin of the nucleic acid linker (linker carries biotin and fluorescein)
notes: as for B3
Regarding B5, in the experiment with カルモジュリン, the binding result is recorded as “no binding (tested: 500 nM in the protein mix)”.
